This assay concerns HA-YY1. Nature of the assay: Co-IP of Flag-EZH2 wt/mutants with HA-YY1. The conditions noted are these: OPB domain of YY1 deleted. In kind it is binding. The source says: HA-tagged expression vectors of wild-type (wt) and mutant YY1 were constructed by amplifying and subcloning the corresponding fragments of the YY1 coding region into the pcDNA3 vector. To generate EZH2 mutants, different regions of its coding sequence (1–251, 252–384, 385–618, 619–751, 385–465, 465–545, 545–618, 465–492, and 465–519) were amplified and subcloned into pGEX-4T-1 and pSL4-3×Flag plasmids to construct vectors expressing recombinant GST-EZH2 and 3×Flag-EZH2 mutants, respectively. To generate vectors expressing 3×Flag-YPB, -OPB, and -Cont (with a scrambled sequence of […]) peptides, their coding sequences were individually subcloned into a lentiviral vector pSL4 using the CMV promoter to drive the expression of 3×Flag-YPB-2A1-EGFP, 3×Flag-OPB-2A1-EGFP, and 3×Flag-Cont-2A1-EGFP. […]
Immunoprecipitations were performed as described previously. […] In Western blot studies, protein concentrations of samples were determined using the Bradford protein method, and 20 μg of proteins for each sample were separated by SDS-PAGE followed by transfer to polyvinylidene difluoride (PVDF) membranes. […]
Figure 1 Identification of YY1 binding site on EZH2 protein. […] The samples were analyzed by Western blot using EZH2 and YY1 antibodies as indicated. […]

B1: HA-YY1 (ΔOPB): YY1 mutant with the OPB domain deleted (protein)
chain: MASGDTLYIATDGSEMPAEIVELHEIEVETIPVETIETTVVGEEEEEDDDDEDGGGGDHGGGGGHGHAGHHHHHHHHHHHPPMIALQPLVTDDPTQVHHHQEVILVQTREEVVGGDDSDGLRAEDGFEDQILIPVPAPAGGDDDYIEQTLVTVAAAGKSGGGGSSSSGGGRVKKGGGKKSGKKSYLSGGAGAAGGGGADPDEKKDIDHETVVEEQIIGENSPPDYSEYMTGKKLPPGGIPGIDLSDPKQLAEFARMKPRKIKEDDAPRTIACPHKGCTKMFRDNSAMRKHLHTHGPRVHVCAECGKAFVESSKLKRHQLVHTGEKPFQCTFEGCGKRFSLDFNLRTHVRIHTGDRPYVCPFDGCNKKFAQSTNLKSHILTHAKAKNNQ
modifications: left off: HA, end not stated, kept
As to B1, the “binding of HA-YY1 (ΔOPB) to wt EZH2 in co-IP” value is on record as “did not show detectable binding affinity”.
